In US20200000877A1, “TREATMENT OF TUMOURS USING PEPTIDE-PROTEIN CONJUGATES” (priority 2014, published 2020):
Entries after “also recorded” stand apart in the source; their conditions may differ.

Tests used:
RIP1-Tag5 tumours [1] = assay: Short term treatment of tumour-bearing RIP1-Tag5 mice, tumour histology; type: in vivo, mouse
Procedure: Short term treatment: commencing at 26-27 weeks of age mice were treated for 2 weeks with bi-weekly intravenous (i.v.) injections of recombinant proteins in 100 μl volume at 0.2 ng (equivalent to approximately […] body weight for a 30 g mouse) or 20 ng (equivalent to approximately […] body weight for a 30 g mouse) LIGHT or LIGHT-RGR. When indicated this was followed by one adoptive transfer of TagTCR8 (CD8+) T cells. Four days later, mice were sacrificed and tumours were isolated for histology. For adoptive transfer experiments, TagTCR8 lymph node cells were activated in vitro for 3 days, with 10 U of rIL-2/ml and 25 nM Tag peptide […] (SEFLIEKRI). 2.5×10^6 activated CD8^+ T cells were injected i.v once. The short term treatment regimen is shown schematically in FIG. 1
(§1) Mice were perfused with 2% neutral-buffered formalin before removal of tumours. Tumours were incubated in 10% (2 h) and 30% sucrose overnight and embedded in OCT compound. For immunohistochemistry the following antibodies were used: anti B220 (BD Pharmingen), anti-CD8 (Ly-2, BD Pharmingen), anti-CD31 (Mec 13.3., BD Pharmingen), anti-ICAM2 (3C4, BD Pharmigen), anti-CD45 (30-F11, BD Pharmingen), anti-CD68 (FA-11, BD Biosciences), anti-calponin (rabbit monoclonal EP798Y, Abcam), anti-caldesmon (rabbit monoclonal E89, Abcam), anti-collagen I or collagen IV (rabbit polyclonal, Abcam), Ki67 (PP67, Abcam), MECA79 (American type tissue culture, ATCC) and αSMA (1A4, Sigma). For secondary detection, AMCA (7-Amino-4-methylcoumarin-3-acetic acid), Cy-3 or FITC-conjugated IgG F(ab′)2 fragments (Jackson Immuno Research) were used. The αSMA staining was amplified using the mouse on mouse (M.O.M.) kit (Vector). For lectin perfusion, mice were i.v. injected with 50 μg of FITC-labelled tomato lectin (Lycopersicon esculentum, Vector). After 10 min of circulation, mice were heart-perfused with 2% neutral-buffered formalin and tumours frozen in OCT. To evaluate vessel leakiness, 1 mg of 70 kDa Texas Red Dextran (Invitrogen) was injected i.v. and allowed to circulate for 10 min. Mice were heart-perfused with PBS followed by 2% neutral buffered formalin and tumours frozen in OCT. Apoptosis was assessed using TUNEL staining (Roche). Images were recorded on a Nikon Ti-E microscope and quantified using NIS software modules (version 3.0).
To study the complex interrelationship between tumour, tumour vessels and the immune system, the inventors' analyses focused on a transgenic mouse model which develops spontaneous tumours that mimic the clinical scenario with regard to native anatomical location, slow growth kinetics, and multistep tumour progression. In RIP1-Tag5 mice, the oncogene SV40 Large T antigen (Tag; RIP, rat insulin gene promoter) is exclusively expressed in β cells of the pancreas leading to stepwise tumour development through well-characterized stages progressing from hyperplastic islets, to the initiation of Tag expression at approximately 10 weeks, the onset of blood vessel formation in angiogenic islets (termed “angiogenic switch”) at approximately 16 weeks and then to highly vascularised solid tumours at approximately 22 weeks, followed by death at approximately 30 weeks.

pericyte cell line = assay: Calponin/caldesmin expression in pericyte cell line in vitro; type: cell-based; conditions: direct LIGHT induction; data not shown
RIP1-Tag5 tumours [2] = assay: Long term treatment and survival studies in RIP1-Tag5 mice; type: in vivo, mouse
Procedure: 22 week-old RIP1-Tag5 mice were treated with bi-weekly i.v. injections of recombinant proteins as described for short term regimens for a total of 8 weeks and survival/tumour burden analysed at the set endpoint of 30 weeks. For adoptive transfer experiments, 2.5×10^6 activated TagTCR8 CD8^+ T cells were injected i.v twice (at week 4 and week 6). In adoptive transfer experiments (without LIGHT-RGR), mice received two adoptive transfers only. Chemotherapy: 22 week-old mice were treated with i.v. injections of 0.2 ng LIGHT-RGR bi-weekly over a period of 8 weeks and were simultaneously provided with […] cyclophosphamide (metronomic low dose) in drinking water throughout the experiment. The long term treatment regimen is shown schematically in FIG. 2. In addition, mice were treated with cyclophosphamide and/or LIGHT-RGR and survival monitored (death as endpoint).
For vaccination, mice were primed with one subcutaneous injection (tail base) of 50 μg recombinant Tag protein mixed with 50 μg Freund's adjuvant (Sigma). […] For combination therapies with checkpoint blockade, RIP1-Tag5 mice were treated with LIGHT-RGR (20 ng, iv, biweekly) in combination with anti-PD1 ([…].) and anti-CTLA4 ([…].) antibodies (BioXCell). In addition, mice were treated with triple combination of LIGHT-RGR/anti-PD1+anti CTL4/anti-Tag vaccine.
as §1
Cumulative survival time was calculated by the Kaplan-Meier method and analyzed by the log-rank test. Student's t test (2-tailed) was used unless indicated otherwise. A P value of less than 0.05 was considered statistically significant. Error bars indicate SD unless stated otherwise.
To study the complex interrelationship between tumour, tumour vessels and the immune system, the inventors' analyses focused on a transgenic mouse model which develops spontaneous tumours that mimic the clinical scenario with regard to native anatomical location, slow growth kinetics, and multistep tumour progression.

4T1 breast cancer = assay: Breast tumour model, orthotopic 4T1 in Balb/c mice, tumour histology; type: in vivo, mouse
Procedure: (§2) Murine breast cancer cells (5×10^6, 4T1 from ATCC) were injected orthotopically into the mammary fat pad of Balb/c mice. […] Mice were injected with pimonidazole (hypoxia marker) and FITC-labelled lectin. After 1 h/10 min (pimonidazole/lectin, respectively) circulation, mice were perfused with 2% formalin and tumors dissected and fresh frozen in OCT compound. Tumours were analyzed by histology for vessel frequency (CD31), quality of vessel perfusion (CD31 plus lectin-FITC), caldesmon induction and frequency of intratumoral hypoxia (pimonidazole staining).
as §2, with “caldesmon (contractile pericyte marker)” for “caldesmon”

[3] = test system: tumour resident macrophages; assay: TGFβ secretion of ex vivo purified tumour resident macrophages (ELISA); type: cell-based, mouse; conditions: macrophages from treated tumours; data not shown
stromal cells = assay: CCL21 secretion by stromal cells
RIP1-Tag5 tumours [4] = assay: Short term treatment of tumour-bearing RIP1-Tag5 mice, tumour histology; type: in vivo, mouse; conditions: 2 μg; regimen not stated
[5] = 0.2 ng i.v. bi-weekly for 2 weeks
[6] = 20 ng i.v. bi-weekly for 2 weeks

B1: LIGHT (protein, listed as Mus musculus)
chain: MESVVQPSVFVVDGQTDIPFRRLEQNHRRRRCGTVQVSLALVLLLGAGLATQGWFLLRLHQRLGDIVAHLPDGGKGSWEKLIQDQRSHQANPAAHLTGANASLIGIGGPLLWETRLGLAFLRGLTYHDGALVTMEPGYYYVYSKVQLSGVGCPQGLANGLPITHGLYKRTSRYPKELELLVSRRSPCGRANSSRVWWDSSFLGGVVHLEAGEEVVVRVPGNRLVRPRDGTRSYFGAFMV
vessel leakiness (extravasation of 70 kDa dextran) (RIP1-Tag5 tumours [1]; 0.2 ng, 2 week treatment): leaky phenotype | calponin/caldesmin induction in pericyte cells (pericyte cell line): not induced

B2: LIGHT-RGR (protein)
chain: MESVVQPSVFVVDGQTDIPFRRLEQNHRRRRCGTVQVSLALVLLLGAGLATQGWFLLRLHQRLGDIVAHLPDGGKGSWEKLIQDQRSHQANPAAHLTGANASLIGIGGPLLWETRLGLAFLRGLTYHDGALVTMEPGYYYVYSKVQLSGVGCPQGLANGLPITHGLYKRTSRYPKELELLVSRRSPCGRANSSRVWWDSSFLGGVVHLEAGEEVVVRVPGNRLVRPRDGTRSYFGAFMVGGGCRGRRSTG
collagen IV alignment / stromal Col IV (RIP1-Tag5 tumours [1]; [5]): close vessel alignment of collagen IV; also recorded: decreased stromal Col IV | pericyte attachment to vessels (αSMA+ pericytes) (RIP1-Tag5 tumours [1]; [5]): firm attachment of pericytes to vessels; also recorded: significantly decreased the protrusion of αSMA+ pericytes from the vasculature | normalization of tumour vessels (histology) (RIP1-Tag5 tumours [1]; 0.2 ng i.v. bi-weekly for 2 weeks (four injections), RIP1-Tag5 mice): normalized chaotic tumour vessels | total vessel counts / CD31 surface area (RIP1-Tag5 tumours [1]; 0.2 ng i.v. bi-weekly for 2 weeks, CD31 vessel marker): without affecting total vessel counts; also recorded: total surface area of CD31 remained intact | tumour vessel caliber (RIP1-Tag5 tumours [1]; 0.2 ng i.v. bi-weekly for 2 weeks, small <30 μm, larger 150-200 μm): shift from large to small caliber tumour vessels; also recorded: significant increase in small vessels | T cell infiltration, compared to either treatment on their own (RIP1-Tag5 tumours [1]; 0.2 ng in combination with adoptive transfer of in vitro activated CD8+ T cells): significantly improves T cell infiltration | tumour perfusion (FITC-lectin staining of vessels) (RIP1-Tag5 tumours [1]; 0.2 ng, 2 week treatment): indicative of adequate perfusion; also recorded: increased tumour perfusion | vessel leakiness (extravasation of 70 kDa dextran) (RIP1-Tag5 tumours [1]; 0.2 ng, 2 week treatment): less leaky phenotype; also recorded: reduced vascular leakiness | CD8+ T cell infiltration (RIP1-Tag5 tumours [1]; 0.2 ng, short term): enhance CD8+ T cell infiltration | ICAM-1 expression on tumour endothelial cells (RIP1-Tag5 tumours [1]; 0.2 ng, short term): increases expression of the inflammatory adhesion molecule ICAM-1 | expression of collagen I in normalized vessels (RIP1-Tag5 tumours [1]; 0.2 ng, short term): significantly down regulated | expression of contractile markers calponin and caldesmon in αSMA-positive tumour pericytes (RIP1-Tag5 tumours [1]; 0.2 ng, short term): significant increase in expression; also recorded: significantly up regulated | function of vessels within the tumour (RIP1-Tag5 tumours [1]; 0.2 ng, short term): improved the function of vessels within the tumour | formation of ectopic lymph node structures associated with HEVs (MECA79) (RIP1-Tag5 tumours [1]; [6]): induced the formation of ectopic lymph node structures | tumours with HEV structures (RIP1-Tag5 tumours [1]; [6]): 60-75% | immune cell infiltration of intratumoural areas surrounding HEVs (RIP1-Tag5 tumours [1]; 20 ng, short term): heavily infiltrated with T cells and B cells | efficacy (total tumour burden by weight) (RIP1-Tag5 tumours [1]; two week, 20 ng LIGHT-RGR with anti-PD-1/anti-CTLA4 double treatment versus single antibodies): superior to single treatment | survival of RIP1-Tag5 mice at week 30 (RIP1-Tag5 tumours [2]; 0.2 ng LIGHT-RGR combined with adoptive T cell transfer): approximately 70% | survival over vaccination alone or vaccination with LIGHT (RIP1-Tag5 tumours [2]; 0.2 ng in combination with anti-Tag vaccination): substantially increased survival | inflammatory response at tumour site / tumour appearance (RIP1-Tag5 tumours [2]; 0.2 ng long term in combination with adoptive transfer of anti-Tag lymphocytes): substantial inflammatory response at the tumour site and pale | tumour size / tumour burden (RIP1-Tag5 tumours [2]; 0.2 ng plus cyclophosphamide, 8 weeks): shift from large tumours to smaller tumours | apoptotic tumour cells (TUNEL), compared to each treatment alone (RIP1-Tag5 tumours [2]; 0.2 ng plus low dose metronomic cyclophosphamide in drinking water, 8 weeks): significant increase in apoptotic tumour cells | survival compared to controls (RIP1-Tag5 tumours [2]; 20 ng LIGHT-RGR with anti-PD-1 (250 μg) and anti-CTLA4 (75 μg) antibodies, week 23 to 45): significantly increased survival | survival at 45 weeks of age (RIP1-Tag5 tumours [2]; 20 ng LIGHT-RGR with tumour specific (anti-Tag) vaccine): 30% | RIP1-Tag5 mice alive at 45 weeks (RIP1-Tag5 tumours [2]; 20 ng LIGHT-RGR+vaccine+anti-PD-1+anti-CTLA4): 70% | tumour cell apoptosis (TUNEL) (RIP1-Tag5 tumours [2]; 20 ng, long term): increase in tumour cell apoptosis | tumour cell content (Dapi, H&E) (RIP1-Tag5 tumours [2]; 20 ng, long term): substantial reduction of tumour cells | tumour necrosis at 30 weeks (RIP1-Tag5 tumours [2]; 20 ng, long term): highly necrotic | survival compared to either treatment alone (RIP1-Tag5 tumours [2]; LIGHT-RGR in combination with cyclophosphamide from week 22): significant increased survival | survival of RIP1-Tag5 mice at week 30 (RIP1-Tag5 tumours [2]; single treatments, LIGHT-RGR 0.2 ng, treated from week 22): approximately 30% | vessel normalization as shown for RIP1-Tag5 mice (4T1 breast cancer; 20 ng): reproduced all aspects of vessel normalization | vessel normalization (4T1 breast cancer; 20 ng i.v. bi-weekly for 2 weeks, 4T1): induces vessel normalization | contractile markers in pericytes (caldesmon) (4T1 breast cancer; 20 ng, 4T1): induced contractile markers in pericytes | overall vascularity (CD31+ vessels) (4T1 breast cancer; 20 ng, 4T1): without change in overall vascularity | tumour hypoxia (pimonidazole) (4T1 breast cancer; 20 ng, 4T1): reduced tumour hypoxia; also recorded: reduces tumor hypoxia | vessel calibers (4T1 breast cancer; 20 ng, 4T1): reduced vessel calibers | vessel perfusion (FITC-lectin) (4T1 breast cancer; 20 ng, 4T1): increases vessel perfusion | binding affinity to tumor vessels relative to RIP1-Tag5 (4T1 breast cancer; breast cancer model): lower binding affinity to tumor vessels | dose required to recapitulate the vessel phenotype of RIP1-Tag5 mice treated with 0.2 ng (4T1 breast cancer; breast cancer model): 20 ng | TGFβ secretion by tumour macrophages [3]: stimulates macrophages in the tumour environment to secrete TGFβ | CCL21 secretion by stromal cells (stromal cells): stimulates stromal cells to secrete CCL21 | effect on vessels in RIP1-Tag5 mice (RIP1-Tag5 tumours [4]): caused vessel death
